Source: patent US20070092933A1 (AVIDIS, published 2007)

Tests used:
[1] = target: the molecule itself; experiment: gel filtration (S75 26/60), self-association of monomers

Protein	increase of turbidity at 650 nm (insulin disulphide reduction assay) (insulin)	binding result [1]
DsbA (soluble DsbA of E. coli) (protein) AQYEDGKQYTTLEKPVAGAPQVLEFFSFFCPHCYQFEEVLHISDNVKKKLPEGVKMTKYHVNFMGGDLGKDLTQAWAVAMALGVEDKVTVPLFEGVQKTQTIRSASDIRDVFINAGIKGEEYDAAWNSFVVKSLVAQQEKAAADVQLRGVPAMFVNGKYQLNPQGMDTSNMDVFVQQYADTVKYLSEKK	the activity is directly comparable to the activity of soluble DsbA	–
DsbA-C4bp fusion protein (human C4bp core fused to the C-terminus of the E. coli DsbA protein) (protein) AQYEDGKQYTTLEKPVAGAPQVLEFFSFFCPHCYQFEEVLHISDNVKKKLPEGVKMTKYHVNFMGGDLGKDLTQAWAVAMALGVEDKVTVPLFEGVQKTQTIRSASDIRDVFINAGIKGEEYDAAWNSFVVKSLVAQQEKAAADVQLRGVPAMFVNGKYQLNPQGMDTSNMDVFVQQYADTVKYLSEKKETPEGCEQVLTGKRLMQCLPNPEDVKMALEVYKLSLEIEQLELQRDSARQSTLDKEL	the DsbA present in the DsbA-C4bp fusion protein is still active, and the activity is directly comparable to the activity of soluble DsbA	–
db-C4bp fusion protein (downstream box peptide fused N-terminal to the 57 amino acid core domain of the human C4bp alpha chain) (other, Expressed in the cytosol of E. coli C41(DE3); Predicted monomer size 7491.5 Da; Recovered as an oligomer of about 60-67 kDa by gel filtration, with disulphide bonds between the monomers; also called native db-C4bp; product of plasmid pAVD 77) MASMNHKGSETPEGCEQVLTGKRLMQCLPNPEDVKMALEVYKLSLEIEQLELQRDSARQSTLDKEL	–	binds
